In the nanobody polyreactivity screen of Harvey et al. (2022):

Assay: yeast display, Sf9 membrane polyspecificity reagent, FACS + sequencing; frameworks hold sequencing errors
Outline: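 A nanobody's polyreactivity label depends on the gate it was sorted from. Yeast display cells were stained with 10% biotinylated, detergent-solubilized Sf9 membrane reagent for 1 hour at 4 °C, enriched on streptavidin microbeads and sorted by FACS. The low and high (top ~1%) gates were set on anti-HA fluorescence for expression and streptavidin fluorescence for reagent binding.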

Sequence	polyreactivity (PSR sort gate)
QVQLVESGGGIVQAGGSLRLSCAASGRIFQFYAMGWYRQAPGKERELVAGITTSGGSTYYADSVKGRFTISRDNAKNTVYLQMNSLKPEDTAVYYCAASRHFARHRGYYFRYDYWGQGTQVTVSS	high polyreactivity
QVQLVESGGGLVQAGGSLRLSCAASGLIFRRYTMGRYRQATGKERELVAAISRGGASTSYADSVKGRFTISRDNAKNTVYLQMNSLIPEDTAVYYCAATSPRSSRTYAYDYWGQGTQVTVSS	high polyreactivity
QVQLVESGGGLVQAGGSLRLSCAASGRIFRRNVMGWYRQAPGKERELVAAITGSGSSTYYADSVKGRFTISRDNAKNTVYLQMNSLKPVDTAVYYCATKWRFKLGDYWGQGTQVTVSS	high polyreactivity
QVQLVESGGGLVQAGGSLRLSCAASGRTFVTYAKGWYRQAPGKERELVAAISASGGSTYYADSVKGRFTISRDNAKNTVYLQMNSLNPEDTAVYYCAKTYFLATPYGYWGQGTQVTVSS	low polyreactivity
QVQLVESGAGLVQAGGSLRISGAASGRIFGKYAMGWYRQPPGKEREFVARISFSGGTTYYADSVKGRFTISRDNAKNTVYLQMNSLKPEDTAVYYCAARRQSGYGRQLDYWGQGTQVTVSS	high polyreactivity
QVQLVESGGGLVQAGGSLRLSCAASGYIIWSYAMGWYRQAPGKERELVAGISYSGGSTYYADSVKGRFTISRDNAKNTVYLQMNSLKPEDTAVFYCAALRRGYVPFGYWGQGTQVTVSS	high polyreactivity
QVQLVESGGGLVQAGGILRLSCAASGRIFVFYFMGWYRQAPGKERELVAAITRTGGSTYYADSVKGRFTISRDNAKNTVYLQMNSLKPEDTAFYYCATRYTRFRHFDYWGQGSQVTVSS	low polyreactivity
QVQLVESGGGLVQAGGSLRLSCASSGYIFSLSGMGWYRQAPGKERELVAAITGSGGGTYADSVKGRFTISRDNAKNTVYLQMISLKPEDTAVYYCAAGGYRRRFWPIYDYWGQGTQVSVSS	low polyreactivity
QVQLVESGGGLVQAGGSLRLSCAASGRILYTYAMGWYRQAPGKERELVATISSGGGTNYADSVKGRFTISRDNAKNTVYLQMNSLKPEDSAVYYCAARYGYSRGPYYRSDYWGQGTQVTVSS	high polyreactivity
QVQLVESGGGLVQAGGSLRFSCAASGGTFFLNVMGWYRPAPGKERELVAAITNSAGSTYYADSVKGRFTISRDNAKNTVYLQMNSLKPEDTAVYYCATDWSKVAGYTSYDYWGQGTQVTVSS	low polyreactivity
QVQLVESGGGLVQAGGSLRLSCASSGPTFNEYAMAWYRQAPRKERELVARITRGGSTYYADSVKGRFTISRDNAKNTFYFQINSLIPEDTAVYEFAADLSLLYGGYWITDYDYWVQGTQVTVSS	low polyreactivity
QVQLVESGGGLVQAGGSLRLSCAASGLIFNLYAMGWYSQAPGKEREFVATITGIGGSTYYADSVKGRFTISRDNAKNTVYLQMNSLKPQDTAVYYCAADAWFLPYNYWGQGTQVTVSS	low polyreactivity
QVQLVESGGGLVQAGGSLRLSCAASGSTFARYAMGWYRQAPGKERELVAAITWSGGSTYYADSVKGRFTISRDNAKNTVYLQMNSLKPEDTAVYYCAARRRVGYYWGQGTQVTVSS	high polyreactivity
QVQLVESGGGLVQAGGSLRLSCAASGSIFADYAMGWYRQAPGKERELVAAITASGGTTYYADSVKGRFTISRDNAKNTVYVQMNSLKPEDTAVYYCNAGNRTFLYDRDDYWGQGTQVSVSS	high polyreactivity
QVQLVESGGGLVQAGGTLRLSGDASGSTFPANAMGWYRQAPGKERELVAAISYRGGSTYYADSVKGRFTISRDNAKNTVYLQMNSLKPEDTAVYYCAATPWYRTRTYDYWGQGTQVTVSS	high polyreactivity
QVQLVESGGGLVQAGGSLRLSCAASGFTFARYAMGWYRQAPGKEREFVAAIDKSGGSTYYADSVKGRFTISRDNAKNTVYLQMNSLKPEDTAVYYCAAVYSSYGRRYNSWGQGTQVTVSS	high polyreactivity

Sequence	polyreactivity (PSR sort gate)
QFQLVESGGGLVQAGGSLRLRCAASGLIIKKYTMGWYRQAPGKEMELVASISKSGGSTYYADSVKGRFTISRDNAKNTVYLQMNSLKPEDTAVYYCNRVTHYIRFDYWGQGTQVTVSS	low polyreactivity
QVQLVESGGGLVQAGGSLRLSCAASGRIFKYYAMGWYRQAPGKERELVAAITRGGSTNYADSVKGRFTISRDNASNTVYLQMTSLKPEDTAVYYCAVVTVRNHRMDYWGQGTQVTVSS	low polyreactivity
QVQLVESGGGLVQAGGSLRLSCAASGRTFYYYYTMGWYRQPPGKETELVAAISRSGSTNYADSVKGRFTISRDNAKNTVYLQMNSLKPEDTAVYYCARSYRSDGSRFGYWGQGTQVTVSS	low polyreactivity
QVQLVESGGGLVQAGGSLRLSCAASGSIFAAYAMGWYRQAPGKERELVAVINSRGGITSYADSVKGRFTISRDNAKNTVYLQMNSLKPEDTAVYYCAARPWYSWRYDYWGQGTQVTVSS	high polyreactivity
QVQLVESGGGLVQAGGSLRLSCAASGSIFPSYAMGWYRQAPGKERELVAAISVSGGSTYYADSVKGRFTISRDNAKNTVYLQMNSLKPEDTAVYYCAAQHGYPRYYYWGQGTQVTVSS	high polyreactivity
QVQLVESGGGLVQAGGSLRLSCAASGSTFDVYVMGWYRQAPGKERELVAAISSGDDTNYADSVKGRFTISRDNAKNTVYLQMNSLKPEDTAVYYCAAAYYYYVSGWFDYWGQGTQVTVSS	low polyreactivity
QVQLVESGGGLVQAGGSLRLSCAASGSTFRSNAMGWYRQAPGKESELVAAITRRGSTYYADSVKGRFTISRDNAKNTVYLQMNSVKPEDTAVYYCAARVPGYASGASGYSSYRYEYWGQGTQVTVSS	high polyreactivity
QVQLVESGGGLVQAGGSLRLSCAASGFTFAHNAMGWYRQAPGKERELVAAITRSGGSTYYADSVKGRFTISRDNAKNTVYLQMNSLKPEDTAVYYCNAGRRGSGYGYWGQGTQVTVSS	high polyreactivity
QVQLVESGGGLVQAGGSLRLSCAASGRTFGWNVMGWYRQAPGKERELVAAISGSGGSTYYADSVKGRFTISRDNAKNTVYLQMNSLKPEDTAVYYCAALYGPGREYDYWGQGTQVTVSS	low polyreactivity
QVQRVESGGGLVQAGGSLRLSCAASGSIFYSYAMGWYRQAPGKARELVATISWSGGRTNYADSVQGRFTISRDNAKNTVYLQMNSLKPEDTAVYYCAADIPPWGGDYWGQGTQVTVSS	low polyreactivity
QVQLVESGGGLVQAGGSLRLSWAAYGRIVKYAMGWYREPPGKERELVAAISGSGGTTYYADSVKGRLTISRDNAKNTVEFHMKSLKPEDTAVYYCAASRPRPPSSRRMVYWGQGSQVTVSS	high polyreactivity
QVQLVESGGGLVQAGGSLRLSCAASGRTFASNAMGWSRQAPGKERELVAAITRGGSTNYADSVKGRFTISRDNAKNTVYLQMNSLKPEDTAVYYCAARLSSGFRSYYYWGQGTQVTVSS	high polyreactivity
QVQLVESGGGLVQAGGSLRLSCAASGFTFAYYAMGWYRPAPGKERELVATIRGGGSTNYADSVKGRFTISRDNAKNTVYLQMNSLKPEDTAVYYCAAGYVWYFDYFSAYYWGQGTQVTVSS	high polyreactivity
QVQLVESGGGLVQAGGSLRLSCAASGGTFENYAMGWYRQPPGKERELVAAISSGGSTNYADSVKGRFTISRDNAKNTVYLQMNSLKQEDTAVYYCARYRVWGSTGHKLFHDDYWGQGTQVTVSS	low polyreactivity
QVQLVESGGGLVQAGGSLRLSCAASGGTFDTYDMGWYRQAPGKERELVAAIRFGDGTTYYADSVKGRFTISRDNAKNTVYLQMNSLKPEDTAVYYCNTDDPGNYWYAEYDYWGQGTQVTVSS	low polyreactivity
QVQLVESGGGLVQAGGSLRLSCAASGSTFYSYAMGWYRQAPGTERELVAAITSRGDRTYYADSVKGRFTISRDNAKNTVYLQMNSLKPEDTAVYYCAAEQSWQGYAYYYWGQGTQVTVSS	high polyreactivity
